Experimental data: IntAct's records for PubMed 31515488

B1: Protein FAM13C (Homo sapiens), Q8NE31 (parent)
chain: MFSCFCFSLQDNSFSSTTVTECDEDPVSLHEDQTDCSSLRDENNKENYPDAGALVEEHAPPSWEPQQQNVEATVLVDSVLRPSMGNFKSRKPKSIFKAESGRSHGESQETEHVVSSQSECQVRAGTPAHESPQNNAFKCQETVRLQPRIDQRTAISPKDAFETRQDLNEEEAAQVHGVKDPAPASTQSVLADGTDSADPSPVHKDGQNEADSAPEDLHSVGTSRLLYHITDGDNPLLSPRCSIFSQSQRFNLDPESAPSPPSTQQFMMPRSSSRCSCGDGKEPQTITQLTKHIQSLKRKIRKFEEKFEQEKKYRPSHGDKTSNPEVLKWMNDLAKGRKQLKELKLKLSEEQGSAPKGPPRNLLCEQPTVPRENGKPEAAGPEPSSSGEETPDAALTCLKERREQLPPQEDSKVTKQDKNLIKPLYDRYRIIKQILSTPSLIPTIQEEEDSDEDRPQGSQQPSLADPASHLPVGDHLTYSNETEPVRALLPDEKKEVKPPALSMSNLHEATMPVLLDHLRETRADKKRLRKALREFEEQFFKQTGRSPQKEDRIPMADEYYEYKHIKAKLRLLEVLISKQDVAKTI
B2: Vacuolar protein sorting-associated protein 37B (Homo sapiens), Q9H9H4 (parent)
chain: MAGAGSEARFAGLSLVQLNELLEDEGQLTEMVQKMEETQNVQLNKEMTLASNRSLAEGNLLYQPQLDTLKARLTQKYQELQVLFEAYQIKKTKLDRQSSSASLETLLALLQAEGAKIEEDTENMAEKFLDGELPLDSFIDVYQSKRKLAHMRRVKIEKLQEMVLKGQRLPQALAPLPPRLPELAPTAPLPYPAPEASGPPAVAPRRIPPPPPPVPAGRLATPFTAAMSSGQAVPYPGLQCPPLPPRVGLPTQQGFSSQFVSPYPPPLPQRPPPRLPPHQPGFILQ
B3: U3 small nucleolar RNA-associated protein 14 homolog A (Homo sapiens), Q9BVJ6 (parent)
chain: MTANRLAESLLALSQQEELADLPKDYLLSESEDEGDNDGERKHQKLLEAISSLDGKNRRKLAERSEASLKVSEFNVSSEGSGEKLVLADLLEPVKTSSSLATVKKQLSRVKSKKTVELPLNKEEIERIHREVAFNKTAQVLSKWDPVVLKNRQAEQLVFPLEKEEPAIAPIEHVLSGWKARTPLEQEIFNLLHKNKQPVTDPLLTPVEKASLRAMSLEEAKMRRAELQRARALQSYYEAKARREKKIKSKKYHKVVKKGKAKKALKEFEQLRKVNPAAALEELEKIEKARMMERMSLKHQNSGKWAKSKAIMAKYDLEARQAMQEQLSKNKELTQKLQVASESEEEEGGTEDVEELLVPDVVNEVQMNADGPNPWMLRSCTSDTKEAATQEDPEQLPELEAHGVSESEGEERPVAEEEILLREFEERRSLRKRSELSQDAEPAGSQETKDSGSQEVLSELRVLSQKLKENHQSRKQKASSEGTIPQVQREEPAPEEEEPLLLQRPERVQTLEELEELGKEECFQNKELPRPVLEGQQSERTPNNRPDAPKEKKKKEQMIDLQNLLTTQSPSVKSLAVPTIEELEDEEERNHRQMIKEAFAGDDVIRDFLKEKREAVEASKPKDVDLTLPGWGEWGGVGLKPSAKKRRRFLIKAPEGPPRKDKNLPNVIINEKRNIHAAAHQVRVLPYPFTHHWQFERTIQTPIGSTWNTQRAFQKLTTPKVVTKPGHIINPIKAEDVGYRSSSRSDLSVIQRNPKRITTRHKKQLKKCSVD
partner: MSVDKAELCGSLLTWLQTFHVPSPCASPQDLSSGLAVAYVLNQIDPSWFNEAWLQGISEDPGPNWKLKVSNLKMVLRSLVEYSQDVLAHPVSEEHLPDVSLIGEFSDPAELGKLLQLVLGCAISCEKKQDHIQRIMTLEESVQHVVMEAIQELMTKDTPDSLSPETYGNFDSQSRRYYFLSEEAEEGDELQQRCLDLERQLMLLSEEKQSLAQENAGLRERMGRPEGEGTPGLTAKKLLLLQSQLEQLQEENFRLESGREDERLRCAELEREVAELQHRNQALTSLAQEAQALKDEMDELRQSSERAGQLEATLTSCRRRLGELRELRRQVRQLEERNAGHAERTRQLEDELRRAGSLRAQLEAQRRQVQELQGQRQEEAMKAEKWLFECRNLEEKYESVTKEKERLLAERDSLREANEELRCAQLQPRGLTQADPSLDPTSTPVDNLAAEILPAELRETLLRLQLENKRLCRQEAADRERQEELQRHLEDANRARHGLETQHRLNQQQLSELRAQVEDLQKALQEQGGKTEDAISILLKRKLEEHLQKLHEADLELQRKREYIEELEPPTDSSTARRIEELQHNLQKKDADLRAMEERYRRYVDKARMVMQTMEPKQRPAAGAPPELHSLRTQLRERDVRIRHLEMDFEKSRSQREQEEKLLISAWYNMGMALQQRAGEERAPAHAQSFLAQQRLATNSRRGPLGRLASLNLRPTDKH
B4: Ribosome-recycling factor, mitochondrial (Homo sapiens), Q96E11 (parent)
chain: MALGLKCFRMVHPTFRNYLAASIRPVSEVTLKTVHERQHGHRQYMAYSAVPVRHFATKKAKAKGKGQSQTRVNINAALVEDIINLEEVNEEMKSVIEALKDNFNKTLNIRTSPGSLDKIAVVTADGKLALNQISQISMKSPQLILVNMASFPECTAAAIKAIRESGMNLNPEVEGTLIRVPIPQVTREHREMLVKLAKQNTNKAKDSLRKVRTNSMNKLKKSKDTVSEDTIRLIEKQISQMADDTVAELDRHLAVKTKELLG
partner: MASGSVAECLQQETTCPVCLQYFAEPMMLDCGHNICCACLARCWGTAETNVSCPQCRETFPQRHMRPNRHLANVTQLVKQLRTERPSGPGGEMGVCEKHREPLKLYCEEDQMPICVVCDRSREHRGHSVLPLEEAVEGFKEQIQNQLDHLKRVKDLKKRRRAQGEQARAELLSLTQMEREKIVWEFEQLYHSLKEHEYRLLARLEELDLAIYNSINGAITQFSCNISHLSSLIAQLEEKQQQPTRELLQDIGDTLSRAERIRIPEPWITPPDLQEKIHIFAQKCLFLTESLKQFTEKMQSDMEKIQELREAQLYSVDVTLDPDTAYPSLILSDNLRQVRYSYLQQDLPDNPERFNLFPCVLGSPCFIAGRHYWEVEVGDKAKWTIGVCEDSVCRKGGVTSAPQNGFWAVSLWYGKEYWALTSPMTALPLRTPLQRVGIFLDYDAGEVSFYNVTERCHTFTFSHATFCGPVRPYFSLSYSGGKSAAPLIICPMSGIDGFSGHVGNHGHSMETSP
B5: Protein DBF4 homolog B (Homo sapiens), Q8NFT6 (parent)
chain: MSEPGKGDDCLELESSMAESRLRAPDLGVSRCLGKCQKNSPGARKHPFSGKSFYLDLPAGKNLQFLTGAIQQLGGVIEGFLSKEVSYIVSSRREVKAESSGKSHRGCPSPSPSEVRVETSAMVDPKGSHPRPSRKPVDSVPLSRGKELLQKAIRNQGSISGGGSGGSSSLLTNARSWGVRILHVDEMMMHVQQLSLASLCVKKQQPKKPEGTCPAAESRTRKVARLKAPFLKIEDESRKFRPFHHQFKSFPEISFLGPKDASPFEAPTTLGSMHHTRESKDGEPSPRSAAHTMPRRKKGYCECCQEAFEELHVHLQSAQHRSFALEAHLYAEVDRIIAQLSHSFADIPFQAGLPRWSGSPASDCDPLCPETLHPHQPSHPRAASPRIRKEDSCQASVTQGRAAGQQRWTESLDGVMGPPASHTCVSATTLLPALPKGSREQGCLCPCPASFTQSHLVTSLALLPGEWSPAEDMPLHPSQENSFAPADIPVKGPLLFPEARPWLMSARCWVRPFPFVTWGCLIPHDTTPLHEEVSPCPCLRLGYLYLLLTQSLWCRVRVPSLSTAGPIPRTSHPCTLAFPSYLNDHDLGHLCQAKPQGWNTPQPFLHCGFLAVDSG
B6: Endophilin-B2 (Homo sapiens), Q9NR46 (parent)
chain: MDFNMKKLASDAGIFFTRAVQFTEEKFGQAEKTELDAHFENLLARADSTKNWTEKILRQTEVLLQPNPSARVEEFLYEKLDRKVPSRVTNGELLAQYMADAASELGPTTPYGKTLIKVAEAEKQLGAAERDFIHTASISFLTPLRNFLEGDWKTISKERRLLQNRRLDLDACKARLKKAKAAEAKATTVPDFQETRPRNYILSASASALWNDEVDKAEQELRVAQTEFDRQAEVTRLLLEGISSTHVNHLRCLHEFVKSQTTYYAQCYRHMLDLQKQLGRFPGTFVGTTEPASPPLSSTSPTTAAATMPVVPSVASLAPPGEASLCLEEVAPPASGTRKARVLYDYEAADSSELALLADELITVYSLPGMDPDWLIGERGNKKGKVPVTYLELLS
partner: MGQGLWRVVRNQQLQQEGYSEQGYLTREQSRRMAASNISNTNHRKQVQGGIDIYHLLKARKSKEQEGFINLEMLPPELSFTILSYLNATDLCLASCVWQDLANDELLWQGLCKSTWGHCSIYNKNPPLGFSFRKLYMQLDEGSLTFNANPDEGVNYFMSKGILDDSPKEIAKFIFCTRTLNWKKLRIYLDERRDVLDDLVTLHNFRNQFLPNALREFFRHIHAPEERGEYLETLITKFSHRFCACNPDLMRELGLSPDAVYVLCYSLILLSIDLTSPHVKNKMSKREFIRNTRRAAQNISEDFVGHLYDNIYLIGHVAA
B7: Copper homeostasis protein cutC homolog (Homo sapiens), Q9NTM9 (parent)
chain: MKRQGASSERKRARIPSGKAGAANGFLMEVCVDSVESAVNAERGGADRIELCSGLSEGGTTPSMGVLQVVKQSVQIPVFVMIRPRGGDFLYSDREIEVMKADIRLAKLYGADGLVFGALTEDGHIDKELCMSLMAICRPLPVTFHRAFDMVHDPMAALETLLTLGFERVLTSGCDSSALEGLPLIKRLIEQAKGRIVVMPGGGITDRNLQRILEGSGATEFHCSARSTRDSGMKFRNSSVAMGASLSCSEYSLKVTDVTKVRTLNAIAKNILV
partner: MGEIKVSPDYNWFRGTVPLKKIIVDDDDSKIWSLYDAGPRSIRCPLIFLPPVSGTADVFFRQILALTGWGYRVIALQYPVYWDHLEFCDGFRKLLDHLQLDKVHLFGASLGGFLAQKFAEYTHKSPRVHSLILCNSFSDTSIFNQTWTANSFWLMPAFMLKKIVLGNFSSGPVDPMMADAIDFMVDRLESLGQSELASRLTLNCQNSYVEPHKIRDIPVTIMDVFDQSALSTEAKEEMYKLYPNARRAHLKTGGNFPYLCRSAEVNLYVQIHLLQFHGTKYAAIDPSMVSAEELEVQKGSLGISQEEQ
B8: Cysteine-rich C-terminal protein 1 (Homo sapiens), Q9UGL9 (parent)
chain: MSSQQSAVSAKGFSKGSSQGPAPCPAPAPTPAPASSSSCCGSGRGCCGDSGCCGSSSTSCCCFPRRRRRQRSSGCCCCGGGSQRSQRSNNRSSGCCSGC
partner: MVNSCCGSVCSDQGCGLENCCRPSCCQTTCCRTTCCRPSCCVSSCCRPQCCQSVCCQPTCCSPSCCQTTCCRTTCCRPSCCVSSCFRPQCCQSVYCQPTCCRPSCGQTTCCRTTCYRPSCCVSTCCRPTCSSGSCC
B9: Copper homeostasis protein cutC homolog (Homo sapiens), Q9NTM9 (parent)
chain: B7 chain
B10: Four and a half LIM domains protein 2 (Homo sapiens), Q14192 (parent)
chain: MTERFDCHHCNESLFGKKYILREESPYCVVCFETLFANTCEECGKPIGCDCKDLSYKDRHWHEACFHCSQCRNSLVDKPFAAKEDQLLCTDCYSNEYSSKCQECKKTIMPGTRKMEYKGSSWHETCFICHRCQQPIGTKSFIPKDNQNFCVPCYEKQHAMQCVQCKKPITTGGVTYREQPWHKECFVCTACRKQLSGQRFTARDDFAYCLNCFCDLYAKKCAGCTNPISGLGGTKYISFEERQWHNDCFNCKKCSLSLVGRGFLTERDDILCPDCGKDI
partner: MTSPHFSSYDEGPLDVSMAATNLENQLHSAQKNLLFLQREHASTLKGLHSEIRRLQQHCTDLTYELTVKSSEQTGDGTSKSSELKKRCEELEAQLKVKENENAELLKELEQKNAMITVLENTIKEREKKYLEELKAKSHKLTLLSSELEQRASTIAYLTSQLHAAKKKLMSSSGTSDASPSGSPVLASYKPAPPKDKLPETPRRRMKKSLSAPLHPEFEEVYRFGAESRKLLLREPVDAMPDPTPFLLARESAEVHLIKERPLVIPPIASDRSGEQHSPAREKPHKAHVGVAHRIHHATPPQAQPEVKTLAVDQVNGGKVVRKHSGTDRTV

Variants of: B1
Settings: with tfp11_human TFIP11, Q9UBB9

| Variant | effect of a mutation on the interaction |
| --- | --- |
| P147S | with no effect |

Variants of: B1
Settings: with kif2a_human KIF2A

| Variant | effect of a mutation on the interaction |
| --- | --- |
| K97R | with no effect |

Variants of: B2
Settings: with vps28_human VPS28, Q9UK41

| Variant | effect of a mutation on the interaction |
| --- | --- |
| M151I | with no effect |

Variants of: B3
Settings: with hook2_human HOOK2, Q96ED9

| Variant | effect of a mutation on the interaction |
| --- | --- |
| V256M | with no effect |

Variants of: B4
Settings: with tri27_human TRIM27, P14373

| Variant | effect of a mutation on the interaction |
| --- | --- |
| M216V | with no effect |

Variants of: B5
Settings: with tri23_human TRIM23, P36406

| Variant | effect of a mutation on the interaction |
| --- | --- |
| L199S | disrupting interaction strength |

Variants of: B6
Settings: with fbx8_human FBXO8, Q9NRD0

| Variant | effect of a mutation on the interaction |
| --- | --- |
| V223M | with no effect |

Variants of: B7
Settings: with spg21_human SPG21, Q9NZD8

| Variant | effect of a mutation on the interaction |
| --- | --- |
| P77L | disrupting interaction strength |

Variants of: B8
Settings: with kra42_human KRTAP4-2, Q9BYR5

| Variant | effect of a mutation on the interaction |
| --- | --- |
| G20S | with no effect |

Variants of: B9
Settings: with lnx1_human LNX1, Q8TBB1

| Variant | effect of a mutation on the interaction |
| --- | --- |
| P77L | disrupting interaction strength |

Variants of: B10
Settings: with ccd92_human CCDC92, Q53HC0

| Variant | effect of a mutation on the interaction |
| --- | --- |
| A37S | with no effect |
| N95K | with no effect |
